Measured values reported in patent US12098378B2, “Anti-fungal polypeptides” (priority 2020, dated 2024).

Experiments:
Podosphaera aphanis = assay: Control of powdery mildew on strawberry in greenhouse; assay type: in vivo; conditions: 250, 500, 750 g ai/ha, 6 applications
Protocol: (§1) Four replicates of 20 strawberry plants (3 m^2 per plot) were treated with 0.576 or 0.72 l of spray solution, corresponding with a spray volume of […], according to local practice. The spray mix contained a concentration of active ingredient as described in Table 6. Six applications were performed spaced 7 days apart. No artificial infection was performed and first spray was placed before first symptoms appeared. The efficacy of 10G11 was compared to that of a non-treated control and the chemical reference Topas 2.5 WG (Penconazole). In addition, a chemical rotation of Ganzo (Myclobutanil), Topas 2.5 WG (Penconazole) and Signum (Boscalid+Pyraclostrobin) was evaluated. A seventh treatment replaced part of the chemicals in this chemical rotation by 10G11 as described in Table 6.
Efficacy assessments were performed on 20 leaves per plot, assessing the percentage of leaf area affected (PESSEV) and the percentage of leaves affected (PESINC) on the whole plot. Assessments were performed on a weekly basis and continued until 2 weeks after the last application.

Podosphaera xanthii = assay: Control of powdery mildew on cucumber in greenhouse; assay type: in vivo
Protocol: Four replicates of 10 plants per plot of cucumber plants (4 m^2 per plot) were treated with a spray volume between 1000 and 18751/ha depending on the crop height. The spray mix contained a concentration of active ingredient as described in Table 8. Eight applications were performed spaced 7 days apart. No artificial infection was performed and first spray was placed at the onset of flowering. The efficacy of 10G11 was compared to that of a non-treated control, a chemical reference Topaz (Penconazole), a biological reference Sonata (Bacillus pumilis strain QST 2808) in combination with the adjuvant Elasto G5 and a chemical rotation of Takumi (Cyflufenamid), Flint (Trifloxystrobin) and Topaz.
Efficacy assessments were performed on 40 leaves per plot, assessing the percentage of leaf area affected (PESSEV). Assessments were performed on a weekly basis and continued until two weeks after the last application.

Oidium neolycopersici = assay: Control of powdery mildew on tomato; assay type: in vivo; conditions: 250, 500, 750 g ai/ha, 5 applications, until one week after the last application
Protocol: Four replicates of 15 tomato plants (9.9 m^2 per plot) were treated with […] of spray solution, corresponding with a spray volume of […], according to local practice. The spray mix contained a concentration of active ingredient as described in Table 5. Five applications were performed spaced 7 days apart. No artificial infection was performed and first spray was placed when first symptoms were observed. The efficacy of 10G11 was compared to that of a non-treated control and the chemical reference Topas (Penconazole). In addition, a chemical rotation of Systhane Forte (Myclobutanil), Ortiva (Azoxystrobin), Signum (Boscalid. Pyraclostrobin) and Topas was evaluated. A seventh treatment replaced part of the chemicals in this chemical rotation by 10G11 as described in Table 5.
The percentage of leaf area affected by the disease (disease severity) was recorded in 10 randomly selected leaves per plot. Percentage incidence (PESINC; % of affected leaves), was calculated based on these values. Assessments were performed on a weekly basis and continued until 1 week after the last application.

Fraction 3 = assay: Bio-layer interferometry (BLI) binding; design: species or system Botrytis cinerea; conditions: compared to a reference VHH (FIG. 12)
Excerpt: 10G11 binding to Fraction 3 was further confirmed by bio-layer interferometry (BLI). BLI is a label-free optical analytical technique for measuring biomolecular interactions (Kamat et al, 2017. Analytical biochemistry 536: 16-31; Wallner et al. 2013. Journal of Pharmaceutical and Biomedical Analysis 72: 150-154).

Botrytis cinerea [1] = assay: Control of Botrytis cinerea on grapevine in field; assay type: in vivo; conditions: 250, 500, 750 g ai/ha, 4 applications; until 20 days after the last application (FIG. 19)
Protocol: Four replicates of 10 vines (33.6 m^2 per plot) were treated with 8 l of spray solution, corresponding with a spray volume of […], according to local practice. The spray mix contained a concentration of active ingredient as described in Table 3. Four applications were done at specific phenological development stages of the vines: BBCH 77, BBCH 79, BBCH 81 and BBCH 85 (according to the standardised BBCH-scale). No artificial infection was performed, and first spray was placed preventative, based on forecasted disease pressure. The efficacy of 10G11 was compared to that of a non-treated control and the chemical reference Teldor (Fenhexamid). In addition, a chemical rotation of Switch (Fludioxonil+cyprodinil) and Teldor and a rotation of Switch and 10G11 was tested.
Disease severity is recorded as percent severity on a scale of 0-100% (PESSEV). Recording started when first symptoms appeared, just prior to the fourth application. Additional assessments were performed 13 and 20 days after the last application. At each assessment, the percentage of grape bunch surface affected by the disease was estimated on 100 randomly selected bunches per plot.

Botrytis cinerea [2] = assay: Control of Botrytis cinerea on strawberry, at harvest and postharvest; assay type: in vivo
Protocol: as §1, with “7.” for “6.”, “at the onset of flowering.” for “before first symptoms appeared.”, “Teldor (Fenhexamid).” for “Topas 2.5 WG (Penconazole).”, “Switch (Cyprodinil+Fludioxonil), Teldor (Fenhexamid)” for “Ganzo (Myclobutanil), Topas 2.5 WG (Penconazole)”, “Scala (Pyrimethanil)” for “Signum (Boscalid+Pyraclostrobin)”
Efficacy assessments were performed on fruits at harvest and the number and weight of healthy and diseased fruits was evaluated. Per plot, 50 healthy fruits were then placed into cold storage (2° C.) for two days, after which the postharvest assessment continued for 5 more days at ambient temperature ([…]). Botrytis incidence and severity on stored fruits was assessed at 0, 2 and 5 days at ambient storage.

B1: 10G11: VHH polypeptide, SEQ ID NO: 2, begins with a D residue (protein)
VHH: DVQLVESGGGLVQAGGSLRLSCAASRSIFSINAMDWYRQAPGKQREWVAGITRGGTTKYADSVKGRFTISRDNAKKKVYLQMNSLKPEDTAVYYCNVLRGEQPWTRDYWGQGTQVTVSS
severity (PESSEV) of powdery mildew on strawberry (Podosphaera aphanis; until two weeks after the last application (FIG. 24)): clear and dose-related performance | incidence (PESINC) of powdery mildew on strawberry (Podosphaera aphanis; until two weeks after the last application (FIG. 25)): clear and dose-related performance | severity (PESSEV) of powdery mildew on cucumber (Podosphaera xanthii; 125, 250, 500 g ai/ha LWA, until 1 week after the seventh application (FIG. 28)): clear and dose-related performance | severity (PESSEV) of powdery mildew on cucumber (Podosphaera xanthii; from the eighth application, very severe disease pressure (FIG. 28)): Performance decreased | severity of powdery mildew on tomato (percentage of leaf area affected) (Oidium neolycopersici; mild disease pressure (FIG. 22)): clear and dose-related performance | incidence (PESINC) of powdery mildew on tomato (Oidium neolycopersici; mild disease pressure (FIG. 23)): clear and dose-related performance | binding to Fraction 3 by BLI (Fraction 3): confirmed binding | percent severity (PESSEV) of Botrytis cinerea on grape bunches (Botrytis cinerea [1]): clear and dose-related performance | Botrytis infected strawberry fruits at harvest (Botrytis cinerea [2]; 250, 500, 750 g ai/ha, 6 applications in the field during flowering (FIG. 26)): reduced incidence of Botrytis at harvest | Botrytis severity on strawberry fruits in postharvest (Botrytis cinerea [2]; stored fruits, 2 days at 2° C. then 0, 2 and 5 days at ambient storage (FIG. 27)): dose-related reduction of Botrytis severity on stored fruits
